Values of other authors in US20230332104A1, “ZBTB32 INHIBITORS AND USES THEREOF” (NOVARTIS AG, priority 2020, published 2023).

Test system: rodent and cynomolgus monkey TGF-β

B1: XOMA 089: fully human monoclonal antibody that specifically binds and neutralizes TGF-beta 1 and 2 ligands (antibody, V domains shown)
VH: QVQLVQSGAEVKKPGSSVKVSCKASGGTFSSYAISWVRQAPGQGLEWMGGIIPIFGTANYAQKFQGRVTITADESTSTAYMELSSLRSEDTAVYYCARGLWEVRALPSVYWGQGTLVTVSS
VL: SYELTQPPSVSVAPGQTARITCGANDIGSKSVHWYQQKAGQAPVLVVSEDIIRPSGIPERISGSNSGNTATLTISRVEAGDEADYYCQVWDRDSDQYVFGTGTKVTVLG
For B1, the “cross-reactivity with rodent and cynomolgus monkey TGF-β” value is listed as “cross-reacts”.
